Assay results published in patent US20210238260A1.
Each block holds one substance with its values, some of them ahead of it.

Tests used:
[1] = target: plasma purified human antithrombin III (AT-III), in complex with unfractionated heparin (UFH) (human) (UniProt P01008); assay: K0.5: AT-III conc. (with UFH) for 50% inhibition of FIXa cleavage of Mesyl-D-CHG-Gly-Arg-AMC
[2] = target: Factor VIIIa (recombinant FVIII, Kogenate FS, activated with alpha-thrombin) (UniProt P00451); assay: apparent functional KD (KD-app): FXa generation by FIXa with FVIIIa titrated, PC/PS vesicles, saturating FX, fluorogenic Spectrafluor FXa
Sequence of Factor VIIIa (recombinant FVIII, Kogenate FS, activated with alpha-thrombin) (P00451 other isoform, or with tags, fused parts or gaps limits assumed): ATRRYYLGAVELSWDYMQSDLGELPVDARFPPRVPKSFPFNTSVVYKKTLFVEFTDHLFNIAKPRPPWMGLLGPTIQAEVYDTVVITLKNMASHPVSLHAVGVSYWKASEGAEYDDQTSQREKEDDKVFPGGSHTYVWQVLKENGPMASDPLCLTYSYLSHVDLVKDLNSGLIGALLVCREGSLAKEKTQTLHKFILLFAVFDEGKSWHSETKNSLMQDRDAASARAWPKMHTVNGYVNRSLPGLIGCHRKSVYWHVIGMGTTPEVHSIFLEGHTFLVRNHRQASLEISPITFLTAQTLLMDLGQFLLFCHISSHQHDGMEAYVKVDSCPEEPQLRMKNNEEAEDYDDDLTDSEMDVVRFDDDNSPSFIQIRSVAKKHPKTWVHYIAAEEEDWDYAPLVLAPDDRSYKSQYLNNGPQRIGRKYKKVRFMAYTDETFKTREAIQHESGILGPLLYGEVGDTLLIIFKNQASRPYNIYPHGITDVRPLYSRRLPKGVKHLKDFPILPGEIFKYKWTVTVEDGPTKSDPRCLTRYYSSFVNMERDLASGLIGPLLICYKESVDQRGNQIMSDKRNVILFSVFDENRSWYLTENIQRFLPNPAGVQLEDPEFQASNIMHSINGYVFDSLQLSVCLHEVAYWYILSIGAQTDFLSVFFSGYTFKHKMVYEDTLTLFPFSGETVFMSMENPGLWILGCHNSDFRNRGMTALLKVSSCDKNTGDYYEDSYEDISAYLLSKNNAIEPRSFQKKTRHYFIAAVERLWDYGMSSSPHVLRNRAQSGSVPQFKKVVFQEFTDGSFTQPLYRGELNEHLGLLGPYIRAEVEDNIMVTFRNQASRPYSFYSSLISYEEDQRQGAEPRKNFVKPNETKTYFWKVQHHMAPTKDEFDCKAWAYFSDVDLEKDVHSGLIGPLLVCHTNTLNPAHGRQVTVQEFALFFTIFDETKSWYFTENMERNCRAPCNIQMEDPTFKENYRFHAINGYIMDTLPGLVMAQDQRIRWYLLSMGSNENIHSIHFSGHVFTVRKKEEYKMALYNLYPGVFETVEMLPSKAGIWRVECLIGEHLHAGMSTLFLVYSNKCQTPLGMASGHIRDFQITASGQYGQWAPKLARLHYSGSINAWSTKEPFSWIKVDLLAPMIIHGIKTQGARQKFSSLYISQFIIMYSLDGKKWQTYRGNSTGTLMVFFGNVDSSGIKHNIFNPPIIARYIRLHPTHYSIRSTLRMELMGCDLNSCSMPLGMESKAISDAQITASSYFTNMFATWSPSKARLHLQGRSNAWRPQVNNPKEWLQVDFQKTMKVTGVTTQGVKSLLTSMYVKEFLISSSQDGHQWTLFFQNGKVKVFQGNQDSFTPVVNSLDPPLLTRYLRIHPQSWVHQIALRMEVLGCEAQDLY

[3] = target: antithrombin III (plasma purified human AT-III, Molecular Innovations) (human) (UniProt P01008); assay: AT-III/UFH inhibition of FIXa cleavage of Mesyl-D-CHG-Gly-Arg-AMC; K0.5 = AT-III conc. for 50% inhibition (AT-III varied)
[4] = target: FIXa A103N/N105S/I251S (human) (UniProt P00740); assay: cell-based or functional assay
[5] = target: FIXa A103N/N105S/K247N/N249S (human) (UniProt P00740); assay: cell-based or functional assay
[6] = target: FIXa A204M (human) (UniProt P00740); assay: cell-based or functional assay
[7] = target: FIXa D104N/K106S/N260S (human) (UniProt P00740); assay: cell-based or functional assay
[8] = target: FIXa D104N/K106S/Y155F/K247N/N249S (human) (UniProt P00740); assay: cell-based or functional assay
[9] = target: FIXa D104N/K106S/Y155F/N260S (human) (UniProt P00740); assay: cell-based or functional assay
[10] = target: FIXa D203M (human) (UniProt P00740); assay: cell-based or functional assay
[11] = target: FIXa D203Y (human) (UniProt P00740); assay: cell-based or functional assay
[12] = target: FIXa D85N/D104N/K106S/I251S (human) (UniProt P00740); assay: cell-based or functional assay
[13] = target: FIXa E239N (human) (UniProt P00740); assay: cell-based or functional assay
[14] = target: FIXa E410N (human) (UniProt P00740); assay: cell-based or functional assay
[15] = target: FIXa F314N/H315S (human) (UniProt P00740); assay: cell-based or functional assay
[16] = target: FIXa K400A/R403A (human) (UniProt P00740); assay: cell-based or functional assay
[17] = target: FIXa K400E/R403E (human) (UniProt P00740); assay: cell-based or functional assay
[18] = target: FIXa K413N (human) (UniProt P00740); assay: cell-based or functional assay
[19] = target: FIXa N260S (human) (UniProt P00740); assay: cell-based or functional assay
[20] = target: FIXa R312Y (human) (UniProt P00740); assay: cell-based or functional assay
[21] = target: FIXa R318A (human) (UniProt P00740); assay: cell-based or functional assay
[22] = target: FIXa R318E (human) (UniProt P00740); assay: cell-based or functional assay
[23] = target: FIXa R318N/A320S (human) (UniProt P00740); assay: cell-based or functional assay
[24] = target: FIXa R318Y (human) (UniProt P00740); assay: cell-based or functional assay
[25] = target: FIXa R403A (human) (UniProt P00740); assay: cell-based or functional assay
[26] = target: FIXa T241N/H243S (human) (UniProt P00740); assay: cell-based or functional assay
[27] = target: FIXa V202M (human) (UniProt P00740); assay: cell-based or functional assay
[28] = target: FIXa Y155F/K247N/N249S (human) (UniProt P00740); assay: cell-based or functional assay
[29] = target: FIXa Y155F/N260S (human) (UniProt P00740); assay: cell-based or functional assay
[30] = target: FIXa Y284N (human) (UniProt P00740); assay: cell-based or functional assay
[31] = target: Antithrombin III (ATIII) (human) (UniProt P01008); assay: inhibition of FIXa by ATIII, residual FIXa activity; heparin not given

Substance: Plasma Purified FIXa (Haematologic Technologies, Inc.) (from UniProt P00740 47-191; P00740 227-461) (enzyme)
IC50 [3]: 30 nM

Substance: WT-recombinant FIX (native amino-acid sequence, made in the Sponsor's laboratory; activated, FIXa) (from UniProt P00740 47-191; P00740 227-461) (enzyme)
ATIII Kapp (second-order rate constant of inhibition) [31]: 2.4e+07 M⁻¹ s⁻¹

Substance: BeneFIX Coagulation Factor IX (Recombinant) (activated, FIXa) (from UniProt P00740 47-191; P00740 227-461) (enzyme)
ATIII Kapp (second-order rate constant of inhibition) [31]: 1.6e+07 M⁻¹ s⁻¹

Continued, values first:

IC50 [1]: 30 nM | Kd [2]: 102 nM
Substance: Plasma Purified FIXa (from UniProt P00740 47-191; P00740 227-461) (enzyme)

K0.5 (nM), inhibition of FIXa by AT-III/UFH [4]: 42 nM | K0.5 (nM), inhibition of FIXa by AT-III/UFH [5]: 53 nM | K0.5 (nM), inhibition of FIXa by AT-III/UFH [6]: 29 nM | K0.5 (nM), inhibition of FIXa by AT-III/UFH [7]: 228 nM | K0.5 (nM), inhibition of FIXa by AT-III/UFH [8]: 27 nM | K0.5 (nM), inhibition of FIXa by AT-III/UFH [9]: 292 nM | K0.5 (nM), inhibition of FIXa by AT-III/UFH [10]: 11 nM | K0.5 (nM), inhibition of FIXa by AT-III/UFH [11]: 16 nM | K0.5 (nM), inhibition of FIXa by AT-III/UFH [12]: 28 nM | K0.5 (nM), inhibition of FIXa by AT-III/UFH [13]: 132 nM | K0.5 (nM), inhibition of FIXa by AT-III/UFH [14]: 9 nM | K0.5 (nM), inhibition of FIXa by AT-III/UFH [15]: 104 nM | K0.5 (nM), inhibition of FIXa by AT-III/UFH [16]: > 999 nM | K0.5 (nM), inhibition of FIXa by AT-III/UFH [17]: > 999 nM | K0.5 (nM), inhibition of FIXa by AT-III/UFH [18]: 27 nM | K0.5 (nM), inhibition of FIXa by AT-III/UFH [19]: 312 nM | K0.5 (nM), inhibition of FIXa by AT-III/UFH [20]: 2500 nM | K0.5 (nM), inhibition of FIXa by AT-III/UFH [21]: 4140 nM | K0.5 (nM), inhibition of FIXa by AT-III/UFH [22]: > 10000 nM | K0.5 (nM), inhibition of FIXa by AT-III/UFH [23]: > 999 nM | K0.5 (nM), inhibition of FIXa by AT-III/UFH [24]: 1980 nM | K0.5 (nM), inhibition of FIXa by AT-III/UFH [25]: 190 nM | K0.5 (nM), inhibition of FIXa by AT-III/UFH [26]: 21 nM | K0.5 (nM), inhibition of FIXa by AT-III/UFH [27]: 14 nM | K0.5 (nM), inhibition of FIXa by AT-III/UFH [28]: 13 nM | K0.5 (nM), inhibition of FIXa by AT-III/UFH [29]: 77 nM | K0.5 (nM), inhibition of FIXa by AT-III/UFH [30]: 41 nM
Substance: plasma purified human AT-III (antithrombin III), in complex with full-length unfractionated heparin (from UniProt P01008 33-464)
